Results as given in patent US20250235516A1 (UNIVERSITY OF SOUTH FLORIDA, published 2025).

T1: neutrophil elastase (human, UniProt P08246 30-247, limits assumed)
T1 sequence (looked up): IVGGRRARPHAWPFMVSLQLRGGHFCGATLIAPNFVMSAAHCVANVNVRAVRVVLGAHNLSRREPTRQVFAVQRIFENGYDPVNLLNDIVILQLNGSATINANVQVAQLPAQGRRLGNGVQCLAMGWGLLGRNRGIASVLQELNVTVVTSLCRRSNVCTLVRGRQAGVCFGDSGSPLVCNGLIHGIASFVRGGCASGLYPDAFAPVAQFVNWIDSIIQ


Experiments:
neutrophil elastase = target: T1, neutrophil elastase; experiment: cell-based or functional assay
[1] = target: Matrix metalloproteinase-2 (UniProt P08253 110-465, limits assumed); experiment: cell-based or functional assay
Matrix metalloproteinase-2, sequence (P08253 110-465 limits assumed): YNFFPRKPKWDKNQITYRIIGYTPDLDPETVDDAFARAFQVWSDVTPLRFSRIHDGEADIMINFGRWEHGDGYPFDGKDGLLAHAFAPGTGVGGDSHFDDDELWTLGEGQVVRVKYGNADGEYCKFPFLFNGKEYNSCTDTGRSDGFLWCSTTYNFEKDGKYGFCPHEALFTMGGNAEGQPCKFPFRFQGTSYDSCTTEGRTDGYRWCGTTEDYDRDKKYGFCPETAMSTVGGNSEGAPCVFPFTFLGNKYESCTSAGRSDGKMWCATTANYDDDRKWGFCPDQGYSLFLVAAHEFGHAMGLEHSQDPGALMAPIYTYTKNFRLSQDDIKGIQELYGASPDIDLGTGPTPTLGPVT

% inhibition of NE near the IC50 of the dual inhibitor (neutrophil elastase) [%]	IC50 of MMP-2 inhibition (kinetic colorimetric substrate assay) [1] [µg/mL]	IC50 of NE inhibition (kinetic colorimetric substrate assay) (neutrophil elastase) [µg/mL]	Binder
8.4	50		APP-IP-L10FLAG (designed binder) ISYGNDALMPVPGVGVPGVGVPGLGVPGVGVPGVGVPGVGVPGVGVPGLGVPGVGVPGVGVPGVGVPGVGVPGLGVPGVGVPGVGVPGVGVPGVGVPGLGVPGVGVPGVGVPGVGVPGVGVPGLGVPGVGVPGVGVPGVGVPGVGVPGLGVPGVGVPGVGVPGVGVPGVGVPGLGVPGVGVPGVGVPGVGVPGVGVPGLGVPGVGVPGVGVPGVGVPGVGVPGLGVPGVGVPGVGVPGVGVPGVGVPGLGVPGVGVPGVGDYKDDDDK
	40	0.00085	PMPD2-L10FLAG-APP-IP (designed binder) EEKCTPGQVKQQDCNTCTCTPTGVWGCTLMGCQPAVPGVGVPGVGVPGLGVPGVGVPGVGVPGVGVPGVGVPGLGVPGVGVPGVGVPGVGVPGVGVPGLGVPGVGVPGVGVPGVGVPGVGVPGLGVPGVGVPGVGVPGVGVPGVGVPGLGVPGVGVPGVGVPGVGVPGVGVPGLGVPGVGVPGVGVPGVGVPGVGVPGLGVPGVGVPGVGVPGVGVPGVGVPGLGVPGVGVPGVGVPGVGVPGVGVPGLGVPGVGVPGVGVPGVGVPGVGVPGLGVPGVGVPGVGDYKDDDDKISYGNDALMP
		0.00708	PMPD2-L10FLAG (designed binder) EEKCTPGQVKQQDCNTCTCTPTGVWGCTLMGCQPAVPGVGVPGVGVPGLGVPGVGVPGVGVPGVGVPGVGVPGLGVPGVGVPGVGVPGVGVPGVGVPGLGVPGVGVPGVGVPGVGVPGVGVPGLGVPGVGVPGVGVPGVGVPGVGVPGLGVPGVGVPGVGVPGVGVPGVGVPGLGVPGVGVPGVGVPGVGVPGVGVPGLGVPGVGVPGVGVPGVGVPGVGVPGLGVPGVGVPGVGVPGVGVPGVGVPGLGVPGVGVPGVGVPGVGVPGVGVPGLGVPGVGVPGVGDYKDDDDK
